The values below are quoted from earlier work in publication PMC6783463.

The data set has as its target PTH (15-34) 15-34 (Homo sapiens) (UniProt P01270). The settings on record: cited from earlier work.
UniProt P01270, sequence (P01270 15-34): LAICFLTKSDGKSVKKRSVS

One may read the Kd as a measure of binding affinity in units of concentration. For PTH1R ECD (from UniProt Q03431), the Kd was 1 µM.
